Sequences and labels used below:
B1: Transcription factor JunD (Homo sapiens), P17535 (parent)
chain: METPFYGDEALSGLGGGASGSGGSFASPGRLFPGAPPTAAAGSMMKKDALTLSLSEQVAAALKPAAAPPPTPLRADGAPSAAPPDGLLASPDLGLLKLASPELERLIIQSNGLVTTTPTSSQFLYPKVAASEEQEFAEGFVKALEDLHKQNQLGAGAAAAAAAAAAGGPSGTATGSAPPGELAPAAAAPEAPVYANLSSYAGGAGGAGGAATVAFAAEPVPFPPPPPPGALGPPRLAALKDEPQTVPDVPSFGESPPLSPIDMDTQERIKAERKRLRNRIAASKCRKRKLERISRLEEKVKTLKSQNTELASTASLLREQVAQLKQKVLSHVNSGCQLLPQHQVPAY

We go through two variants from IntAct's records for PubMed 22327296.

Variants of B1 are the subject of the assay. The following applies: with mk10_human MAPK10, P53779.
Chain of mk10_human MAPK10, P53779 (P53779 whole entry): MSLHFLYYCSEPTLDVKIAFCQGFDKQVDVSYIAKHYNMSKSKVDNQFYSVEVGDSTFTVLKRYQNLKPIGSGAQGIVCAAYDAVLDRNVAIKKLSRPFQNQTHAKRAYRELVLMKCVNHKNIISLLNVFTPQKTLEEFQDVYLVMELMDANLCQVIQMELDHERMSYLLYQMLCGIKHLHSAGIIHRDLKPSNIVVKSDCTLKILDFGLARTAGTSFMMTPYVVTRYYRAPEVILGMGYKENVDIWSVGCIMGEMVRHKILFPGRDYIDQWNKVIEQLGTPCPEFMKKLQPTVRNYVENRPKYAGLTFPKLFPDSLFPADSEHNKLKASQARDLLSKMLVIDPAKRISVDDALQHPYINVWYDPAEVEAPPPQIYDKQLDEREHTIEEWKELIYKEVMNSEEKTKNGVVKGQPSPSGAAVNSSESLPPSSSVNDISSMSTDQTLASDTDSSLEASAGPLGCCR
Turning to METPFYGDEALSGLGGGASGSGGSFASPGRLFPGAPPTAAAGSMMKKDALTASASEQVAAALKPAAAPPPTPLRADGAPSAAPPDGLLASPDLGLLKLASPELERLIIQSNGLVTTTPTSSQFLYPKVAASEEQEFAEGFVKALEDLHKQNQLGAGAAAAAAAAAAGGPSGTATGSAPPGELAPAAAAPEAPVYANLSSYAGGAGGAGGAATVAFAAEPVPFPPPPPPGALGPPRLAALKDEPQTVPDVPSFGESPPLSPIDMDTQERIKAERKRLRNRIAASKCRKRKLERISRLEEKVKTLKSQNTELASTASLLREQVAQLKQKVLSHVNSGCQLLPQHQVPAY [L52A;L54A], the “effect of a mutation on the interaction” value is “disrupting interaction strength”.

As for METPFYGDEALSGLGGGASGSGGSFASPGRLFPGAPPTAAAGSMMAADALTLSLSEQVAAALKPAAAPPPTPLRADGAPSAAPPDGLLASPDLGLLKLASPELERLIIQSNGLVTTTPTSSQFLYPKVAASEEQEFAEGFVKALEDLHKQNQLGAGAAAAAAAAAAGGPSGTATGSAPPGELAPAAAAPEAPVYANLSSYAGGAGGAGGAATVAFAAEPVPFPPPPPPGALGPPRLAALKDEPQTVPDVPSFGESPPLSPIDMDTQERIKAERKRLRNRIAASKCRKRKLERISRLEEKVKTLKSQNTELASTASLLREQVAQLKQKVLSHVNSGCQLLPQHQVPAY [K46A;K47A], the “effect of a mutation on the interaction” value is given as “disrupting interaction strength”.
